Our source for the stoichiometry N and Ka values is publication PMC4641746 (Cell, 2015).

The target of experiment [1] is Y46K/V66D mutant of H84T BanLec (recombinant, His-tagged) (Musa acuminata). Put plainly: 15N NMR spin relaxation.
In experiment [2] the target is Y46K/V66D mutant of WT BanLec (recombinant, His-tagged) (Musa acuminata). The experiment is described as follows: 15N NMR spin relaxation.
The target in experiment [3] is T1, BanLec (banana lectin), recombinant His-tagged WT (Musa acuminata, UniProt O22321, H84T).
T1 sequence (O22321 1-141 H84T): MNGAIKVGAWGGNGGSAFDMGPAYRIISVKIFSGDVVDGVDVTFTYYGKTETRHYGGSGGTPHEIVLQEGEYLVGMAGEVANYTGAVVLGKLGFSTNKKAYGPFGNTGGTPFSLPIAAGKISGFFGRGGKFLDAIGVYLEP
The experiment is described as follows: isothermal titration calorimetry. Type of experiment: binding. As to conditions: dimannoside linkage not printed in main text. On the technique in general: ITC needs no label: the signal is the heat of the interaction.

The stoichiometry N is a count of units in the complex or per binding partner. Turning to “Y46K/V66D mutant of H84T BanLec (recombinant, His-tagged) (natural protein)”, the stoichiometry N in experiment [1] amounted to 2.

For “Y46K/V66D mutant of WT BanLec (recombinant, His-tagged) (natural protein)”, the stoichiometry N in experiment [2] was 2.

In the case of dimannoside [M2], the Ka in experiment [3] turned out to be 227.
